Results reported in patent publication US20210155961.

Target: T1, LvaB (untagged)
T1 chain: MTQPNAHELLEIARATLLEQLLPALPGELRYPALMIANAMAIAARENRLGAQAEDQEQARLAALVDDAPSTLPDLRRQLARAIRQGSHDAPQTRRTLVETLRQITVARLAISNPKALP

B1: MBP-LvaA (LvaA N-terminally tagged with maltose binding protein) (protein)
chain: MSSSPTISPASDTFAAMTDDHRLAEFIREQASATRVVIQARKRLSGGAIQENWLLDLLIEGGPWAGVRRWVLRSDALSALPASLDREQEFAVLQVVYQAGVKVPRPLWLCRDVRVHGRVFFLMEYVPGSAAGRALSTGAGPQGRAQLATQLGANLARLHQVRPPCATLCFLSVPDSSPALATIDAYRRYLDTLADAYPVLEWGLRWCELHAPRSSTLCLLHRDYRTGNYLASEEGLEAVLDWEFTGWGDPCEDLGWFTARCWRFTRPDLEAGGIGQLEDFLRGYHEVSSLCIERSRLHYWQVMATLRWAVIALQQGQRHLSGEEPSLELALTARLLPELELDILHMTGAEAP
abundance of CoA species by LC/MS in in vitro enzyme reactions (4HV-CoA to 4PV-CoA): A decrease of 4HV-CoA and an increase of the predicted 4PV-CoA intermediate was seen only when all four of the enzymes were present
